In publication PMC4888466:

Legend:
Assay in all cases: purified protein
Assay type in all cases: biochemical, Caenorhabditis elegans
[1] = test system: O=P(O)(O)O[C@H]1O[C@H](CO)[C@@H](O)[C@H](O)[C@@H]1O; settings: 1 mM GTP, 5 mM MgCl2, pH 7.5, 25°C
[2] = test system: O=P(O)(O)O[C@H]1O[C@H](CO)[C@@H](O)[C@H](O)[C@H]1O; settings: 1 mM GTP, 5 mM MgCl2, pH 7.5, 25°C
[3] = test system: Nc1nc2c(ncn2[C@@H]2O[C@H](COP(=O)(O)OP(=O)(O)OP(=O)(O)O)[C@@H](O)[C@H]2O)c(=O)[nH]1; settings: 1 mM Man-1-P, 5 mM MgCl2, pH 7.5, 25°C

Substance: GMP-1 (Caenorhabditis elegans)
- Km [1]: 18.49 ± 2.14 µM
- kcat [1]: 30.3 ± 0.69 s⁻¹
- kcat/Km [1]: 1.64e+06 ± 190000 M⁻¹ s⁻¹
- Km [2]: 508.90 ± 118.40 µM
- kcat [2]: 33.1 ± 2.9 s⁻¹
- kcat/Km [2]: 65000 ± 16000 M⁻¹ s⁻¹
- Km [3]: 16.04 ± 1.68 µM
- kcat [3]: 29.1 ± 0.58 s⁻¹
- kcat/Km [3]: 1.81e+06 ± 190000 M⁻¹ s⁻¹
